Reference: article PMC7374170, “TRIB3-EGFR interaction promotes lung cancer progression and defines a therapeutic target” (Nature Communications, 2020)

Target: TRIB3 (tribbles pseudokinase 3), purified protein (UniProt Q96RU7)
Experiment: FP

TRIB3 (tribbles pseudokinase 3), purified protein, sequence (Q96RU7 whole entry): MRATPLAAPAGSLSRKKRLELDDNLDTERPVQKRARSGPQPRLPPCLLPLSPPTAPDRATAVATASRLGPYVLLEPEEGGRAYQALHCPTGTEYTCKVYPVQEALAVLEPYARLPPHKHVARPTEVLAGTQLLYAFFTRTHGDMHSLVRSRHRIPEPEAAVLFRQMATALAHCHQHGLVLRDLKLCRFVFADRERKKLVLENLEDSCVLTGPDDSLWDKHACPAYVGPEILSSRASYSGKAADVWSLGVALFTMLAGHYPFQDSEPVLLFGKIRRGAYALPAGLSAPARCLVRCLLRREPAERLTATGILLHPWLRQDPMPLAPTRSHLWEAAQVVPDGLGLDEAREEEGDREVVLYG

IC50: 90.3 nM
Ki: 27.7 nM
Substance: SAH-JGZ4, stapled JGZ peptide (from UniProt P00533)
